Source: patent US20040023313A1 (Amgen, published 2004)
Where a chain is given by its changes, count along the chain named.

T1: E. coli mouse OPGL (mOPGL) 158 (mouse, UniProt O35235 158-316)
T1 construct: kept apart
T1 sequence (looked up): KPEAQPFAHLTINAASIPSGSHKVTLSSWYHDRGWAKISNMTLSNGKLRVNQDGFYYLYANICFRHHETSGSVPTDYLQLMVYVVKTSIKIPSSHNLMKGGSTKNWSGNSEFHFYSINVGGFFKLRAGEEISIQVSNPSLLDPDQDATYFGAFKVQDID

T2: CHO human OPGL (hOPGL) 140 (human, UniProt O14788 140-317)
T2 construct: also called CHO hOPGL 140
T2 sequence (looked up): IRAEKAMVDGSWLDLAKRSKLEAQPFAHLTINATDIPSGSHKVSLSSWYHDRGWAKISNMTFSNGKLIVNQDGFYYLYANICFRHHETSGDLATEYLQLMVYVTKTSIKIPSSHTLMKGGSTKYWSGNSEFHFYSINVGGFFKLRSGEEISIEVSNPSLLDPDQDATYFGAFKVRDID

T3: Murine OPGL [158-316] (murine, UniProt O35235 158-316)
T3 sequence: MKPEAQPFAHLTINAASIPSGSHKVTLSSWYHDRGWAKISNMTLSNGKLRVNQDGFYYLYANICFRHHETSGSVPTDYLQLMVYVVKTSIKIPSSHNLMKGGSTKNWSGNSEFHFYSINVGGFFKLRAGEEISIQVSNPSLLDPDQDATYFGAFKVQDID

T4: OPGL used in the RAW 264.7 osteoclast formation assay (Example 6) (human, UniProt O14788 143-317, limits assumed)
T4 sequence (looked up): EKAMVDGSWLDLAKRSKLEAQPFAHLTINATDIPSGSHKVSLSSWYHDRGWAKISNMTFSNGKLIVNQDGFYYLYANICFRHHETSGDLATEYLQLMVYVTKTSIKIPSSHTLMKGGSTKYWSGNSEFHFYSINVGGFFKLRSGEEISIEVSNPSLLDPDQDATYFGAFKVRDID

B1: 9H7 anti-OPGL antibody (antibody, V domains shown)
VH: EVQLVQSGGGLVHPGGSLRLSCEGSGFTFSSNGMHWVRQTPGKGLEWVSGIGTAGGTYYADSVKGRFTISRDNVKKSLYLQMNSLRAEDMAIYYCVRKDWGWFDPWGQGALVTVSS
VL: EIVLTQSPATLSLSPGERATLSCRASQSISSYLAWYQQKPGQAPRLLIYDASNRATGIPARFSGSGSGTDFTLTISSLEPEDFAVYYCQQRSKWPPYTFGQGTKLEIKR
notes: Fully human IgG1 kappa from HuMab mice; also called 9H7 anti-OPGL MAb
B2: 16E1 anti-OPGL antibody (antibody, V domains shown)
VH: EVQLVQSGGGLVHPGGSLRLSCAGSGFTFSGHALHWVRQAPGKGLEWVSGIGTHGGTYYADSVKGRFTISRDNAKNSLFLQMNSLSAEDMAVYYCTRRNWGQFDYWGQGTLVTVSS
VL: B1 VL with I29V, K93N
notes: Fully human IgG1 kappa from HuMab mice
B3: 2D8 anti-OPGL antibody (antibody, V domains shown)
VH: B1 VH with E23A, N32Y, T40A, A54G, K76N, I92V, V96A, D99N, P105Y, A110T
VL: B1 VL
notes: as for B2
B4: 18B2 anti-OPGL antibody (antibody, V domains shown)
VH: EVQLVQSGGGLVHPGGSLRLSCVGSRFTFSAYPMHWVRQAPGKGLEWVSGIGSGGGTNYADSVKGRFTISRDTAKNSLYLQMNSLRAEDMAVYYCARGRNSFDYWGQGTLVTVSS
VL: DIQMTQSPSSLSASVGDRVTITCRASQGISTWLAWYQQKPEKAPKSLIYAASSLQSGVPSRFSGSGSGTDFTLTISSLQPEDFATYYCQQYNSYPPTFGQGTKVEIKR
notes: as for B2
B5: 2E11 anti-OPGL antibody (antibody, V domains shown)
VH: EVQLVQSGGDLVHPGGSLRLSCVGSGFTFSHYPLHWVRQAPGKGLEWISGIHTGGGTYYTDSVKGRFTISSDNAKNSLYLQMNTLRAEDMAVYYCARGRNSFDYWGQGTLVIVSS
VL: B4 VL with T31S, P80S, K103R, V104L
notes: Fully human IgG1 kappa from HuMab mice; also called 2 µl 1
B6: 22B3 anti-OPGL antibody (antibody, human IgG1, kappa, V domains shown)
VH: B1 VH with D99N
VL: B1 VL with I29V, S30N, Y36F, V85I, K93N, Y97F
notes: as for B2

Each binder was assayed against T1, E. coli mouse OPGL (mOPGL) 158 (assay: SPR (BIAcore 2000), antibody captured on Protein G, mOPGL 158 in solution).
Experimental: (§1) All experiments were performed on a BlAcore 2000 according to the manufacturer's instructions, with the following modifications. Experiments were performed at room temperature using a running buffer containing 10 mM Hepes (pH 7.4), 0.15M NaCl, 3 mM EDTA, and 0.005% Tween 20. Protein G at 50 μg/mL in 10 mM acetate pH 4.5 was immobilized to a level of 1,600 response units (RU) onto a CM5 Research grade sensor chip (BlAcore, Inc.). Antibodies (8-20 μg/mL) were captured onto the Protein G chip at a level of 300-400 RUs. […] Langmuir 1:1 model was used to determine binding kinetics. Protein G immobilized to 1600 RUs was used as a blank surface. A mouse monoclonal antibody was used as a positive control to show binding to hOPGL 140 and to monitor surface stability.

Row | binding result | Binder
1 | no binding (tested: 0.25-62 nM) | B1
2 | no binding (tested: 0.25-62 nM) | B2
3 | no binding (tested: 0.25-62 nM) | B3
4 | no binding (tested: 0.25-62 nM) | B4
5 | no binding (tested: 0.25-62 nM) | B5

These binders were tested against T2, CHO human OPGL (hOPGL) 140 (assay: SPR (BIAcore 2000), antibody captured on Protein G, hOPGL 140 in solution 0.25-62 nM, Langmuir 1:1).
Experimental: as §1

Row | koff | kon | off rate half life t½ | Binder
6 | 0.000137 s⁻¹ | 2.16e+06 M⁻¹ s⁻¹ | 1.41 h | B2
7 | 6.39e-05 s⁻¹ | 1.9e+06 M⁻¹ s⁻¹ | 3.01 h | B6
8 | 0.000186 s⁻¹ | 878000 M⁻¹ s⁻¹ | 1.03 h | B4
9 | 0.000132 s⁻¹ | 453000 M⁻¹ s⁻¹ | 1.46 h | B5

The binders below were run against T3, Murine OPGL [158-316] (assay: ELISA: plate coated with murine OPGL[158-316] at 3 µg/mL, antibody titrated 1.95-2000 ng/ml, goat anti-human IgG (Fc) detection, ABTS, OD405).
Experimental: (§2) After overnight incubation, the protein solutions were removed from the plate and 200 μL of 5% Chicken Serum (Gibco/BRL Cat# 16110-082) in PBST (PBS plus 0.05% Tween 20) was added to each well of the plate and plates were incubated at room temperature (RT) for 3 hours with agitation. After incubation and blocking, plates were washed 4 times with 1× K-P wash solution in dH₂O (Cat# 50-63-00, Kirkegaard & Perry Laboratories) and dried. […] Plates were incubated for 2.25 hours at room temperature with agitation, washed four times with 1× K-P wash solution and dried. Goat anti-human IgG (Fc) (Jackson ImmunoResearch, Cat# 109-036-098) was diluted 1:3000 in 5% Chicken Serum in PBST and 100 μL was added to each well. […] 100 μL of undiluted ABTS substrate (Kirkegaard & Perry; Cat# 50-66-00) was added to each well and the dish was incubated at room temperature until sufficient blue-green color developed. Color development was stopped by addition of 100 μL 1% SDS. Quantitation of color development was performed using a microtiter plate reader with detection at 405 nm.

Row | binding result | Binder
10 | no binding (tested: 2000 ng/ml) | B1
11 | no binding (tested: 2000 ng/ml) | B2
12 | no binding (tested: 2000 ng/ml) | B3
13 | no binding (tested: 2000 ng/ml) | B4
14 | no binding (tested: 2000 ng/ml) | B5

The binders below were run against T5, FLAG-murine OPGL [158-316]/DE (murine, UniProt O35235 158-316) (assay: ELISA: plate coated with FLAG-murine OPGL[158-316]/DE at 3 µg/mL, antibody titrated 1.95-2000 ng/ml, goat anti-human IgG (Fc) detection, ABTS, OD405).
T5 construct: The same paragraph also prints the changes as S231D, V232L, P233A and D235E (T234 unchanged), a numbering two higher than the 229-233 it gives first
Experimental: as §2

Row | EC50 (read off the curve) | binding result | Binder
15 | ~0.01 µg/mL | – | B2
16 | ~0.009 µg/mL | – | B6
17 | – | no binding (tested: 2000 ng/ml) | B5

The binders below were run against T4, OPGL used in the RAW 264.7 osteoclast … (assay: cell-based or functional assay).

Row | IC50 (ng/mL), inhibition of OPGL-driven osteoclast formation of RAW 264.7 cells (TRAP activity, OD 405 nM) | Binder
18 | 129 ng/mL | B1
19 | 352 ng/mL | B2
20 | 611 ng/mL | B3
21 | 146 ng/mL | B6
22 | 80 ng/mL | B4
23 | 77 ng/mL | B5
